Reference: PMC7287642, “SPR Biosensor Based on Polymer Multi-Mode Optical Waveguide and Nanoparticle Signal Enhancement”

Target: T1, C-reactive protein (CRP) (human, UniProt P02741 19-224)
T1 sequence: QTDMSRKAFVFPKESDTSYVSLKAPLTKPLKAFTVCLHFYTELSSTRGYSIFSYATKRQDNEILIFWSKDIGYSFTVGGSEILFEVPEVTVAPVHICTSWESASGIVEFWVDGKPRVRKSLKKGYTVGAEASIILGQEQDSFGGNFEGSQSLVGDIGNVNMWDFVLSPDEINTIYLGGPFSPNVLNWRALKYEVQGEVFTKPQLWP
Test: SPR (AuNP-enhanced aptamer sandwich); Apt1 on sensor and on 17 nm AuNPs; 2 mM Ca2+, 10 mM Mg2+; response 0.118 nm/nM; no shift detected with CRP alone before AuNPs; 10 mM Tris, 50 mM NaCl, 2 mM CaCl2, 10 mM MgCl2, 5 mM KCl, pH 7.5; CRP 30 min, AuNPs 10 min; readout in H2O; binding temperature not stated
Conditions: protein: native; chain copies: 5

B1: Apt1 (anti-CRP aptamer) (ssDNA)
DNA: GGCAGGAAGACAAACACGATGGGGGGGTATGATTTGATGTGGTTGTTGCATGATCGTGGTTGTGGTGCTGT
modifications: 5'-biotin
binding result: binds
